# No end group written: not given here.
# What was measured:
# Conditions in all cases: both partners purified
# [1] = target: T1, LC3A (recombinant, for ITC) (UniProt Q91VR7 1-121); test: ITC; VP-ITC, 25 °C; 50 mM Tris/HCl pH 7.5, 100 mM NaCl, 1 mM DTT, 1 mM EDTA; GABARAP or LC3A (350 uM) injected into Trx-tagged FAM134B (35 uM) in the cell; one-site binding model
# T1 construct: LC3A; source: E. coli BL21 (DE3), purified
# [2] = target: T2, GABARAP (recombinant, for ITC, SEC and crystallization) (UniProt Q9DCD6 1-117); test: as above
# T2 construct: GABARAP; also called recombinant GABARAP protein; source: E. coli BL21 (DE3), purified
# T2 sequence (Q9DCD6 whole entry): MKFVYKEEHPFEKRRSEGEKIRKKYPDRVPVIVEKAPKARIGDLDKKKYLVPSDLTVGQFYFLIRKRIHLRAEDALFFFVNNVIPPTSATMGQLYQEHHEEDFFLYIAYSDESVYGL
# GABARAPL1 [3] = target: T3, GABARAPL1 (UniProt Q8R3R8 1-117); test: SEC-MALS; Superose 12 10/300GL column; 100 mM NaCl, 50 mM Tris/HCl pH 7.5, 1 mM DTT, 1 mM EDTA; proteins mixed at a 1:1 molar ratio
# T3 construct: GABARAPL1; source: E. coli BL21 (DE3), purified
# LC3B = LC3B (UniProt Q9CQV6 1-120); test: as above
# GABARAPL1 [4] = target: T3, GABARAPL1; test: SEC; FAM134A mixed with GABARAPL1 or LC3B at a 1:1 molar ratio; qualitative
Binder,Kd [1] [nM],Kd [2] [nM],binding result (GABARAPL1 [3]),binding result (LC3B),binding result (GABARAPL1 [4])
"EGDDFELLDQSELDQIESELGLTQDQ (domain or fragment, UniProt Q9H6L5 451-476, looked up, also: Trx-tagged, FAM134B (reticulophagy regulator 1), LIR and C-terminal extension, residues 451-476; 451-476 is what the results give for FAM134B LIR; Named 'Trx-tagged FAM134B' for ITC; I take the same construct for SEC-MALS; source: E. coli BL21 (DE3), purified (Ni2+-NTA, size-exclusion chromatography); not shown: Trx-His6, N-terminal, kept) [Trx-tagged FAM134B LIR (aa 451-476)]",~376,42,binds,binds,
"TTEDFELLDQGELEQLNAELGLEPET (domain or fragment, FAM134A, human, residues 488-513; source: E. coli BL21 (DE3), purified) [human FAM134A fragment (residues 488-513)]",,,,,binds

# Reference: article PMC8727931, “The crystal structure of the FAM134B–GABARAP complex provides mechanistic insights into the selective binding of FAM134 to the GABARAP subfamily” (FEBS Open Bio, 2021)
